The target in the data set is Nsp9 (SARS-CoV-2, UniProt P0DTD1 4141-4253). Briefly: EMSA. To be noted: protein: recombinant; tags: C-terminal […]; (pET21b); chain copies: 2; label: 5' biotin; single strand. In general terms: In EMSA bound probe runs differently from free probe, usually more slowly.

B1: dT45 (ssDNA)
DNA: TTTTTTTTTTTTTTTTTTTTTTTTTTTTTTTTTTTTTTTTTTTTT
As to B1, the “apparent K (half saturation)” value is 33.5 ± 2.5 µM.

Source of the values: paper PMC11173125.
